B1: Procollagen type I carboxy-terminal propeptide α1 chain (PICPα1), residues 1218–1464, with N-terminal 8× His tag (domain or fragment, human, UniProt P02452 1218-1464, looked up)
chain: ADDANVVRDRDLEVDTTLKSLSQQIENIRSPEGSRKNPARTCRDLKMCHSDWKSGEYWIDPNQGCNLDAIKVFCNMETGETCVYPTQPSVAQKNWYISKNPKDKRHVWFGESMTDGFQFEYGGQGSDPADVAIQLTFLRLMSTEASQNITYHCKNSVAYMDQQTGNLKKALLLQGSNEIEIRAEGNSRFTYSVTVDGCTSHTGAWGKTVIEYKTTKTSRLPIIDVAPLDVGAPDQEFGFDVGPVCFL
notes: C-terminal propeptide of the human type I procollagen α1 chain, residues 1218–1464 (residue numbers of type I procollagen); Cloned into pSecTag2A (AscI/ApaI) for secretion; Two copies of this chain stand with one PICPα2 chain in the disulfide-linked PICP heterotrimer; also called 8× His-tagged PICPα1; recombinant PICPα1 chain; source: HEK293F, transiently co-transfected with the PICPα2 plasmid at …
B3: Procollagen type I carboxy-terminal propeptide α2 chain (PICPα2), residues 1120–1366, with N-terminal c-myc tag (domain or fragment, human, UniProt P08123 1120-1366, looked up)
chain: DQPRSAPSLRPKDYEVDATLKSLNNQIETLLTPEGSRKNPARTCRDLRLSHPEWSSGYYWIDPNQGCTMDAIKVYCDFSTGETCIRAQPENIPAKNWYRSSKDKKHVWLGETINAGSQFEYNVEGVTSKEMATQLAFMRLLANYASQNITYHCKNSIAYMDEETGNLKKAVILQGSNDVELVAEGNSRFTYTVLVDGCSKKTNEWGKTIIEYKTNKPSRLPFLDIAPLDIGGADQEFFVDIGPVCFK
notes: C-terminal propeptide of the human type I procollagen α2 chain, residues 1120–1366 (residue numbers of type I procollagen); a restriction site was removed by a silent mutation; Cloned into pSecTag2A (AscI/ApaI) for secretion; also called c-myc-tagged PICPα2; source: HEK293F, transiently co-transfected with the PICPα1 plasmid (PICPα1:PICPα2 2:1 molar ratio), secreted; co-purified from culture …

Key:
[1] = target: B3; test: non-reducing and reducing SDS-PAGE (stain, western blot) and SDS-CGE; purified proteins run under non-reducing and reducing conditions; band intensity (ImageJ) and peak area (Agilent 2100 bioanalyzer, Protein 230 kit) quantified; disulfide-linked trimers; conditions: both partners purified
[2] = target: the molecule itself; test: SEC; Superdex 200 10/300 GL; purified PICP (2 mg/mL) in TBS (500 mM NaCl, 2.7 mM KCl, 12 mM Tris, pH 7.4); purified PIIICP in PBS pH 7.4; apparent molecular weight against standard markers
[3] = target: B1; test: pull-down; Ni-NTA purification through the 8× His tag on PICPα1 from culture supernatant of HEK293F cells co-transfected with PICPα1 and PICPα2 plasmids (2:1); western blot with anti-His and anti-c-myc antibodies, non-reducing and reducing SDS-PAGE; conditions: partners not purified

Binder: B1
stoichiometry N [1]: 2 PICPα1 chains per PICPα2 chain

B2: Procollagen type III C-terminal propeptide (PIIICP), homotrimer of PIIICPα1 (residues 1222–1466) with N-terminal 8× His tag (domain or fragment, human, UniProt P02461 1222-1466, looked up)
chain: DEPMDFKINTDEIMTSLKSVNGQIESLISPDGSRKNPARNCRDLKFCHPELKSGEYWVDPNQGCKLDAIKVFCNMETGETCISANPLNVPRKHWWTDSSAEKKHVWFGESMDGGFQFSYGNPELPEDVLDVHLAFLRLLSSRASQNITYHCKNSIAYMDQASGNVKKALKLMGSNEGEFKAEGNSKFTYTVLEDGCTKHTGEWSKTVFEYRTRKAVRLPIVDIAPYDIGGPDQEFGVDVGPVCFL
notes: C-terminal propeptide of the human type III procollagen α1 chain, residues 1222–1466; Mammalian secretion plasmid; also called 8× His-tagged PIIICPα1; recombinant PIIICP; source: HEK293F, transiently transfected, secreted; purified from culture supernatant (Ni-NTA); not shown: 8× His, N-terminal, kept
stoichiometry N [2]: 3

Binder: B3
binding result [3]: binds
